# T1: 161P2F10B protein (human, UniProt O14638 1-875)
# T1 sequence: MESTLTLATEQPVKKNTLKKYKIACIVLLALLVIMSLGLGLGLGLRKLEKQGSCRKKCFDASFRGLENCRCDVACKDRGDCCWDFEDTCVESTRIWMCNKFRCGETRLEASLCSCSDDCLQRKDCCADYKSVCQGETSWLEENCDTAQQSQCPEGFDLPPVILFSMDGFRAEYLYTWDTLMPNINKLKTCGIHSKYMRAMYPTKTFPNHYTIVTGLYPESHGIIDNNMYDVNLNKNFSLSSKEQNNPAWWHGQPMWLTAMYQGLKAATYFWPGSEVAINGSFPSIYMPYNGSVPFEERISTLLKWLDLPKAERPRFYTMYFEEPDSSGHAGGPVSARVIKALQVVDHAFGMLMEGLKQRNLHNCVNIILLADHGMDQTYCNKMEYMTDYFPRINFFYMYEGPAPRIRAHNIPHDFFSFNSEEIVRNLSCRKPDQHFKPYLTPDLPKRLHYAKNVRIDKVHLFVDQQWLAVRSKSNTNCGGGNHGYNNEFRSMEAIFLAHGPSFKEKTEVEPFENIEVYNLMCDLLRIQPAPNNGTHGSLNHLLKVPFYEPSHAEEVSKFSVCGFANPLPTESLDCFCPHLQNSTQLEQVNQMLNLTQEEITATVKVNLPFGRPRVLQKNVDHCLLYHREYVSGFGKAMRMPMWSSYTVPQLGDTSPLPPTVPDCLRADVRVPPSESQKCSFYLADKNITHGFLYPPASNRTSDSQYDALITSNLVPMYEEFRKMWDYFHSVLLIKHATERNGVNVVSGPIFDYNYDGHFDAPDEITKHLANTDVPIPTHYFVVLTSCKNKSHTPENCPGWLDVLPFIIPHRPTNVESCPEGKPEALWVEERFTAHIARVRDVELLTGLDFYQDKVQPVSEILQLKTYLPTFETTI
# What was measured:
# [1] = target: T1, 161P2F10B protein; experiment: cell-based or functional assay
# [2] = target: T1, 161P2F10B protein; experiment: FACS saturation binding on KU812 cells, twelve dilutions, one site fit, n=4
# Method: H16-7.8 and H16-7.8mcMMAF were tested for their binding affinity to 161P2F10B expressed on KU812 cells (human chronic myelogenous leukemia cells, ATCC). Briefly, twelve (12) dilutions of H16-7.8 or H16-7.8mcMMAF were incubated with KU812 cells (50,000 cells per well) overnight at 4° C. at a final concentration of 160 nM to 0.004 nM. At the end of the incubation, cells are washed and incubated with anti-hIgG-PE detection antibody for 45 min at 4° C. After washing the unbound detection antibodies, the cells are analyzed by FACS.
# MFI values were entered into Graphpad Prisim software and analyzed using the one site binding (hyperbola) equation of Y=Bmax*X/(Kd+X) to generate H16-7.8 and H16-7.8mcMMAF saturation curves. Bmax is the MFI value at maximal binding of H16-7.8 or H16-7.8mcMMAF to KU812; Kd is H16-7.8 or H16-7.8mcMMAF binding affinity which are the concentration of H16-7.8 or H16-7.8mcMMAF required to reach halfmaximal binding. […] (n=4).
# [3] = target: T1, 161P2F10B protein; experiment: FACS saturation binding on Ku812 cells, one site fit of MFI
# Method: FIG. 6. Cell Binding and Affinity of H16-7.8 and H16-7.8mcMMAF. H16-7.8 and H16-7.8mcMMAF were tested for the binding affinity to 161P2F10B endogenously expressed on Ku812 cells. Briefly, eleven (11) dilutions of H16-7.8 or H16-7.8mcMMAF were incubated with Ku812 cells (50,000 cells per well) overnight at 4° C. at a final concentration of 160 nM to 0.0001 nM. At the end of the incubation, cells were washed and incubated with anti-hIgG-PE detection antibody for 45 min at 4° C. After washing the unbound detection antibodies, the cells were analyzed by FACS. Mean Florescence Intensity (MFI) values are obtained (See, Table IV). MFI values were entered into Graphpad Prisim software and analyzed using the one site binding (hyperbola) equation of Y=Bmax*X/(Kd+X) to generate H16-7.8 or H16-7.8mcMMAF saturation curves shown in FIG. 6. […]
# H16-7.8 and H16-7.8mcMMAF were tested for the binding affinity to 161P2F10B endogenously expressed on Ku812 cells. […] After washing the unbound detection antibodies, the cells are analyzed by FACS. […] MFI values were entered into Graphpad Prisim software and analyzed using the one site binding (hyperbola) equation of Y=Bmax*X/(Kd+X) to generate H16-7.8 or H16-7.8mcMMAF saturation curves shown in FIG. 6. […]
Binder,"IC 50, inhibition of proliferation of KU812 cells (Alamar blue, 6 days), Lot (1) [1]","IC 50, inhibition of proliferation of KU812 cells (Alamar blue, 6 days), Lot (2) [1]","Specific cytotoxicity activity on KU812 cells, IC50 (Alamar Blue, 6 days) [1]",Kd [2],Kd [3]
"H16-7.8mcMMAF (antibody, V domains shown, mcMMAF on the cysteine of peptide S208FNRGEC214 in part of the chains (0 or 1 drug per L chain); mcMMAF (maleimidocaproyl-monomethyl auristatin F) on cysteine thiols after partial reduction; predominantly 2 drugs on the hinge peptide C225-K250; 0 to 5 drugs per H chain observed; overall DAR 4.0, a mixture of drug loadings, predominant species 4 drugs; also called H16-7.8mcMMAF ADC; ADC H16-7.8mcMMAF) VH: QVQLQESGPGLVKPSQTLSLTCTVSGGSISSGGYYWSWIRQHPGKGLEWIGIIYYSGSTYYNPSLKSRVTISVDTSKNQFSLKLNSVTAADTAVFYCARVAIVTTIPGGMDVWGQGTTVTVSS VL: EIVLTQSPDFQSVTPKEKVTITCRASQSIGISLHWYQQKPDQSPKLLIKYASQSFSGVPSRFSGSGSGTDFTLTINSLEAEDAATYYCHQSRSFPWTFGQGTKVEIKR",0.2 nM,0.1 nM,0.15 nM,0.25 nM,0.19 nM
"161P2F10B MAb H16-7.8 (antibody, V domains shown, Fully human IgG2 kappa from XenoMouse; also called native H16-7.8; recombinant H16-7.8) VH: QVQLQESGPGLVKPSQTLSLTCTVSGGSISSGGYYWSWIRQHPGKGLEWIGIIYYSGSTYYNPSLKSRVTISVDTSKNQFSLKLNSVTAADTAVFYCARVAIVTTIPGGMDVWGQGTTVTVSS VL: EIVLTQSPDFQSVTPKEKVTITCRASQSIGISLHWYQQKPDQSPKLLIKYASQSFSGVPSRFSGSGSGTDFTLTINSLEAEDAATYYCHQSRSFPWTFGQGTKVEIKR",–,–,–,0.08 nM,0.06 nM

# — US20190328898A1 (AGENSYS, published 2019)
